# Assay results from patent publication US12551573B2, “Compositions and methods for the targeting of PCSK9” (Scribe Therapeutics Inc., priority 2022, dated 2026).
# Tested on: HBEGF locus
# Type: cell-based, human
# Conditions: high-throughput screen of dXR repression of the HBEGF gene; abundance of each domain in the library before vs after diphtheria toxin selection; listed domains met p-value <0.01 and log2(fold change) >2
row,Molecule,Log2 (fold change)
1,"DOMAIN_22527 (protein, listed as Tursiops truncatus) VQASLSFEDVAVHFTWEEWQLLDPSQKDLYRNVMWENYCNLVSVGYQTPKPDSFFQLEQGEPPWTVEGAGQSQTCPGTRAS",2.989
2,"DOMAIN_24204 (protein, listed as Propithecus coquereli) SLGSVSFKDVTVDFSREEWQQLDLAQKSLYRDVTLENYFNLISVGCQVPKPEVIFNLEQGGELCVLDGGLSCQNCSDGDIG",3.0779
3,"DOMAIN_23856 (protein, listed as Erinaceus europaeus) SLGMVSFDDVMVTFSLEEWQLLSTSQRTLYRTVMLDTYSSLAALGHCAVKPGVIIKLEQGAEPWMGAQAPPRSLSDPCGPS",3.1072
4,"DOMAIN_23113 (protein, listed as Camelus ferus) GSVCEVSVSFEDVTVDFSREEWQHLDPAQRRLYWDVTLENYSHLCSVGYQVPKPEVIFKLEQGEGPWTLEEETPHQSCSGA",3.4612
5,"DOMAIN_22917 (protein, listed as Cervus elaphus) MAFEDVAVHFSQEEWGLLDTAQRSLYRRVMLENFALLASLGLSVSRPHVVTQLERGEEPWVLSGVDVTLPRDAQRRPHRGS",3.8061
6,"DOMAIN_23331 (protein, listed as Carlito syrichta) LQELLSFEDLSVDFTQKEWQLLNPYQKNLYKDVMLENYSSLVSLGYEVIKPDVIFKLEQGEEPWIRDAEMPSSPSLEVWQV",2.8995
7,"DOMAIN_22311 (protein, listed as Monodelphis domestica) AQEVVSFKDVAVDFTREEWRLLSPPQKELYKEVMLENARNLLSVGLSAPPEDMFSSLEQREAPWMLEKDDLRSCCPEGKMR",2.9903
8,"DOMAIN_23018 (protein, listed as Colobus angolensis) AQMLVTFKDVAVTFTQEEWRQLDLTQRTLYREVMLETCGLLVSLGHRVPKPELVHLLEHGQELWTVKTGLSQPTCAGDRTQ",3.4177
9,"DOMAIN_21909 (protein, listed as Suricata suricatta) AHHLVMFRDVAVDFSQDEWECLNSYQRNLYRDVILENYSNLVSVAGCSISKPDVITLLEQGREPWMVVRDERRRRTLDLES",3.2301
10,"DOMAIN_24446 (protein, listed as Propithecus coquereli) SQGLVSFKDVAVDFTQDEWQQLDPAQRTLYRDVMLENYSHLVSMGYPVSKPDVISKLEQGEDPWIIKRDISNWIYPDENQA",3.6312
11,"DOMAIN_22495 (protein, listed as Callorhinus ursinus) CEGLVSFEDVTMDFSREEWQQLDPAQRCLYWDVMLEIYSHLLSVGYHIPNPEIISRMEKGKKSWIRGAQLPHQRHREVVFG",2.2623
12,"DOMAIN_23679 (protein, listed as Tupaia chinensis) MAFEDVAVYFSREEWELLDTAQRALYRHVMLENFALVASLGFSPSRPCVVIQLESGKEPWLHSGMDTTMSRHAHKRPSSGS",3.7951
13,"DOMAIN_22586 (protein, Nomascus leucogenys) FQASVSFQDVTVEFSQEEWQHLGPVERTLYRDVMLENYSHLVSVGYCFTKPELIFTLEQGEDPWLLEKEKGFLSRNSPEDS",2.1811
14,"DOMAIN_23454 (protein, listed as Carlito syrichta) GKALLSFEDVAMYFTREEWNHLDWAQKDLYRDVMLENYMNMVLLGFQFPKPEVICQLENWDEPWILDLPRAGNRKASSSAC",3.0632
15,"DOMAIN_24615 (protein, listed as Colobus angolensis) TEGLVMFEDVAVYFSREEWGLLNVTQKGLYQDVMLENFALVSSLGLAPLRSPVFSQLENDEQLWVPSWVDETPVSRAEARR",2.4075
16,"DOMAIN_23281 (protein, listed as Colobus angolensis) CWGLLSFKDISMEFTWDEWQLLDSTQKYLYRDVILENYHNLISVGYHGTKPDLIFKLEQGEDPWIINAKISRQSRPDGWEE",2.5048
17,"DOMAIN_23093 (protein, listed as Propithecus coquereli) ESLTLEDVAVEFTWEEWQLLGPAQKDLYWDVMLENYNHLVSLGYQASKPDALSKLAQGEEPCVIEGKIQNRNCPGIRKADS",3.2165
18,"DOMAIN_21583 (protein, listed as Sarcophilus harrisii) ALESVTFQDVAVNFTHEEWGHLKPAQKDLYREVMMENYQNFVSLGLPFSKPHVISQLEKGEAPWITEKASLVPRVSCQDFF",3.1529
19,"DOMAIN_22919 (protein, listed as Colobus angolensis) KPGTVSFADVAVYFSREEWGYLRPAQRALYRDVMRETYCHLGALGVGGSKPALISWVEEEAELWDPAARDPEVTKGLTETD",2.8609
20,"DOMAIN_22459 (protein, listed as Monodelphis domestica) SQGPVKFEDVAIYLWKEEWELMDSTQKRLYRQVMLETYENVLSVGTPHDKPAMIVHLEQGETAWSPALQRPGKEKGRLHGH",2.9261
21,"DOMAIN_22278 (protein, listed as Pteropus vampyrus) KPEDVSFAEVAVYFSLDEWGYLWPAQRALYRDVMRETYGHFGELGFPGPKPALISWMEQESEAWSPAAQDPEEGESVGGAV",3.3575
22,"DOMAIN_22483 (protein, listed as Aotus trivirgatus) TQESLTLEDVAVEFSWEEWQLLDTAQKDLYRDVMVENYNHLVSLGYQTSKPDALSKLAHGQEPWMTDAKIQNKNCPGIRKV",2.1702
23,"DOMAIN_22778 (protein, listed as Saimiri boliviensis) SQGSVSFKDVTVDFTQEEWQQLDPAQKALYRDVMLENYCHFIAVGFHMTKPDMIRKLEQGEELWTQRIFPSYSYLEEDGKT",3.1251
24,"DOMAIN_22454 (protein, listed as Monodelphis domestica) AQEVVTFKDVAVDFTREEWCLLSPPQKELYKEVMLENAQNLLSVGLPGPPEDVISYLKQRKDPWMLEQEGLRSCCPEGEIR",2.6042
25,"DOMAIN_22375 (protein, listed as Tursiops truncatus) PQGCAISEDVFVYFSREEWVLLDEDQRLLYRDVMLENFALLASLGITSSRSYLVTQLEQGEEPWMPAQVDMTAATEKEAQK",2.5484

# Same assay, conditions: high-throughput screen of dXR repression of the HBEGF gene; change in abundance of each domain in the library before and after diphtheria toxin selection
row,Molecule,Log2 (fold change)
1,"DOMAIN_731 (protein, listed as Pan paniscus) MAGEAEAQLDPSLQGLVMFEDVTVYFSREEWGLLNVTQKGLYRDVMLENFALVSSLGLAPSRSPVFTQLEDDEQSWVPSWV",2.1318
2,"DOMAIN_749 (protein, listed as Pan paniscus) MGPQGARRQAFLAFGDVTVDFTQKEWRLLSPAQRALYREVTLENYSHLVSLGILHSKPELIRRLEQGEAPWGEERRRRPGP",3.1162
